EP4813394A2 (Albert-Ludwigs-Universität Freiburg, dated 2026)

Molecular target: T1, TRMT112 (KMT9beta) (Homo sapiens, UniProt Q9UI30 1-125)
T1 construct: TRMT112 is untagged when co-expressed with His-C21orf127 and His-tagged when expressed alone (His-TRMT112); also called His-TRMT112
T1 sequence: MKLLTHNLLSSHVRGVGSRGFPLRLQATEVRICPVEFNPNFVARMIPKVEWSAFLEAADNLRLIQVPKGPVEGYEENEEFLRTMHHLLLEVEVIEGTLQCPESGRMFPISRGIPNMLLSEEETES
Assay: gel filtration chromatography (Superose 6 10/300 GL)

B1: C21orf127(N122A) (enzyme)
chain: MAGENFATPFHGHVGRGAFSDVYEPAEDTFLLLDALEAAAAELAGVEICLEVGSGSGVVSAFLASMIGPQALYMCTDINPEAAACTLETARCNKVHIQPVITDLVKGLLPRLTEKVDLLVFAPPYVVTPPQEVGSHGIEAAWAGGRNGREVMDRFFPLVPDLLSPRGLFYLVTIKENNPEEILKIMKTKGLQGTTALSRQAGQETLSVLKFTKS
notes: Co-expressed with TRMT112 as His-C21orf127(N122A)/TRMT112; also called KMT9alpha(N122A); His-C21orf127(N122A); not shown: N-terminal His tag from pDEST17 or pET-Duet1
B1: binds.
